Consider two substances from publication doi:10.1101/2020.06.17.157057.

Where two headings read alike, the source gives them in different places.

Experiment [1] concerns the target Maltose Binding Protein (MBP), tethered between beads by DNA handles [MBP: P0AEX9]. Nature of the experiment: optical tweezers.
The target is the same in experiment [2]. Nature of the experiment: optical tweezers. This is another data set of the same source.

With “GroEL398A (slowly hydrolyzing GroEL) (from UniProt P0A6F5 1-548) (natural protein)”, the tethers that switched to a prolonged unfolded state in experiment [1] came out at 30%. Consider “GroEL (wild type) (from UniProt P0A6F5 2-525) (natural protein)”, for which the tethers that switched to a prolonged unfolded state in experiment [2] came out at 20%; in experiment [1], 50%.
